Laboratory results published in US20070254316A1 (Johns Hopkins, published 2007).
Ends that are not written are not given here.

Experiments:
[1] = target: T1, xPSM (extracellular portion of human PSMA, Tag-xPSM digested with enterokinase, no affinity tags) (human, UniProt Q04609 44-750); experiment: phage ELISA on xPSM
T1 construct: extracellular domain; also called purified xPSM; soluble xPSM protein

[2] = target: T1, xPSM (extracellular portion of human …); experiment: competition: 380 nM soluble PSMA (xPSM) against LNCaP cells for R5-XC1 phage, 500 nM BSA as control
Procedure: FIG. 7 depicts the specific blocking of LNCaP phage binding by soluble xPSM protein. 10¹⁰ R5-XC1 phage or the round one phage pool were allowed to bind LNCaP cells in the presence of 380 nM PSMA or 500 nM BSA.
(§1) Cell monolayers were washed several times in PBS, and finally incubated five minutes in PBS at 37° C. Cells were knocked free, pelleted, and suspended in RPMI 1640+1% FBS at a concentration of 10⁶ cells per milliliter. 10⁸ PFU from each clone were incubated with 100 μl of cells at 37° C. for 20 minutes while rotating. For competitive inhibition, purified xPSM or BSA were added to the cells along with phage, and a larger concentration of 10¹⁰ PFU was applied. The cells were then centrifuged through 200 μl of 9:1 dibutyl phthalate:cyclohexane, previously described as BRASIL portioning (Giordano, R. J. et al. (2001) Nat. Med. 7:1249-1253, incorporated herein by reference). The tube was then snap frozen in liquid nitrogen to isolate the cell pellet. The cell pellets were then resuspended in 200 μl of log phage ER2738 cells and phage allowed to infect 1 hour at room temperature. A small aliquot was taken to determine the number of phage bound by dilution titer.

[3] = target: T2, Tag-xPSM fusion target protein (human, UniProt Q04609 44-750); experiment: phage ELISA, Tag-xPSM immobilised on microtiter plates, 10^10 PFU, absorbance at 410 nm
T2 construct: extracellular domain; they are put first here only as a guess from the type II topology; Made in Sf-9 cells; also called PSMA fusion protein
T2 sequence (Q04609 44-750): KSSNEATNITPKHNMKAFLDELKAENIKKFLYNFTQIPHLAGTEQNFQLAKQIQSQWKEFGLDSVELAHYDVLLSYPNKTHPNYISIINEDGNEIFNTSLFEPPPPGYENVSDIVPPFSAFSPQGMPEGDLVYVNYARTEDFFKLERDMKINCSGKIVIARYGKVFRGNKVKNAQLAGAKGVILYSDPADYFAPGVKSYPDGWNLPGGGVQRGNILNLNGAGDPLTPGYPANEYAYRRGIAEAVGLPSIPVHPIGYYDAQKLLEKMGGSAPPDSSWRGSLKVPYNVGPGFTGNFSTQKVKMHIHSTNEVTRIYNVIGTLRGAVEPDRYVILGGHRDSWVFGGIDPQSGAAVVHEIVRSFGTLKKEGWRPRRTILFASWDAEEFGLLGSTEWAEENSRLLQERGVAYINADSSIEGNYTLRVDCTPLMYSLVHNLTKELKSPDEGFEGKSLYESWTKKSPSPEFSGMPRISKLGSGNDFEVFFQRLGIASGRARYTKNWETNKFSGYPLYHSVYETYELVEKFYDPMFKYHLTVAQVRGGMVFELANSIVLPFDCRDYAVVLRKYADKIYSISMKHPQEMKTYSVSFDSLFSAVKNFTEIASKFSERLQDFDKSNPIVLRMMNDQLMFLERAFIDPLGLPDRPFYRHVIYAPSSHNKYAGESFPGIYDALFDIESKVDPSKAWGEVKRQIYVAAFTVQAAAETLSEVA
Description: (§2) FIG. 5 depicts the binding of selected phage clones to purified extracellular PSMA. Tag-xPSM was immobilized on microtiter plates and targeted for binding with 10¹⁰ PFU of each individual phage. Bound phages were quantified by ELISA absorbance at 410 nm. R4-C9, R5-XC1, and R3-A4 bound with the following significance compared to insertless phage: p-value=0.005, 0.009, and 0.0001 respectively). Phage clones contained peptide sequences as follows: R5-C6: SEQ ID NO:2; R4-C9: SEQ ID NO:5; R5-XC1: SEQ ID NO:1; R3-A4: SEQ ID NO:95.
(§3) Target proteins were immobilized on 96 well tissue culture plates by incubation for 1-2 hours at room temperature or overnight at four degrees Celsius. Both phage and protein coated plate were blocked for 30 minutes with RPMI 1640+1% Bovine Serum Albumin (BSA) at room temperature. Phage were incubated with target in RPMI 1640+1% BSA for 1 hour at room temperature, wells were washed five times in PBS+0.05% Tween-20, and wells were incubated with 1:5000 HRP/anti-M13 monoclonal antibody (in PBS) for 1 hour. Wells were again washed five times in PBS+0.05% Tween-20, and signal detected by incubation in 1×ABTS Stock Solution (100 mg ABTS in 450 ml of 0.05 M Citric Acid, pH 4.0) and absorbance reading at 410 nm. […] Significance was calculated by two-tailed, two-sample equal variance test.

PSMA on LNCaP cells = target: T3, PSMA on LNCaP cells (human, UniProt Q04609 1-750); experiment: phage binding to LNCaP cells, 10^8 PFU, BRASIL partitioning and titer
T3 construct: whole, on cells; Target is whole LNCaP cells; also called PSMA expressing LNCaP cells
T3 sequence (Q04609 whole entry): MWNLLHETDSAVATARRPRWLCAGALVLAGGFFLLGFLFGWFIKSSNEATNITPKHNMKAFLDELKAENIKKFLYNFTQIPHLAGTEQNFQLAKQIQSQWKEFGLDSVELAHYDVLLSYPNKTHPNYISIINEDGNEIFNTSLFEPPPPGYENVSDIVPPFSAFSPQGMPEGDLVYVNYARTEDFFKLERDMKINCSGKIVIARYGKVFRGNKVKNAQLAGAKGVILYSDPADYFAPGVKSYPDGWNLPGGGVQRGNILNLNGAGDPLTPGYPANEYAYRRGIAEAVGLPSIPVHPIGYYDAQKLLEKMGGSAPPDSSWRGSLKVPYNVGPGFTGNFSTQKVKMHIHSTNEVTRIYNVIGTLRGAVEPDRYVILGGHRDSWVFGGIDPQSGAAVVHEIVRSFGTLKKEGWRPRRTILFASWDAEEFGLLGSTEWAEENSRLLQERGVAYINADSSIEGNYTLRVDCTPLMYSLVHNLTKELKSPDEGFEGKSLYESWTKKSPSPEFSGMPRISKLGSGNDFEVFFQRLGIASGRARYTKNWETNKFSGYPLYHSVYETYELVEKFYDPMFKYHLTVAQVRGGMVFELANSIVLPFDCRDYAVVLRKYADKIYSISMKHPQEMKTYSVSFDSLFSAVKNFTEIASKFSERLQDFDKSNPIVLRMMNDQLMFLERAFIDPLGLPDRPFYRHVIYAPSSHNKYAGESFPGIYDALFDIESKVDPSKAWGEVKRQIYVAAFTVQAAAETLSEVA
Procedure: FIG. 6 depicts the binding of individual phage clones to PSMA expressing LNCaP cells. 1.3×10⁵ harvested LNCaP cells were incubated with 10⁸ PFU of each individual phage for 20 minutes. Cell-bound phage were isolated by BRASIL partitioning and titered. Phage clones contained peptide sequences as follows: R5-C6: SEQ ID NO:2; R4-C9: SEQ ID NO:5; R5-XC1: SEQ ID NO:1; R3-A4: SEQ ID NO:95.
as §1

[4] = target: T2, Tag-xPSM fusion target protein; experiment: phage ELISA; R3-A4 stands only in FIG. 5, where Tag-xPSM was immobilised
Description: as §2, §3

T1 sequence (Q04609 44-750): as the sequence (Q04609 44-750) above

B1: SEQ ID NO 106 phage (M13 phage displaying CQVRHSAQC) (peptide)
chain: CQVRHSAQC
modifications: not fully specified (bridges); cysteine pairing not given here; also: displayed on M13 phage pIII coat protein
notes: Tested as whole phage; not shown: pIII coat protein of M13 filamentous bacteriophage (New England Biolabs CX7C library); junction between peptide and pIII
B1: binds [1].

B2: R5-XC1 phage (M13 phage displaying CQKHHNYLC) (peptide)
chain: CQKHHNYLC
modifications: not fully specified (bridges); cysteine pairing not given here; also: displayed on M13 phage pIII coat protein
notes: Disulfide-constrained heptapeptide flanked by cysteines, tested as whole phage; not shown: pIII coat protein of M13 filamentous bacteriophage (New England Biolabs CX7C library); junction between peptide and pIII
B2: binds [2]; binds [3]; binds (PSMA on LNCaP cells).

B3: SEQ ID NO 28 phage (M13 phage displaying CLSSNSSLC) (peptide)
chain: CLSSNSSLC
modifications: not fully specified (bridges); cysteine pairing not given here; also: displayed on M13 phage pIII coat protein
notes: Tested as whole phage; also called R3-C1; not shown: pIII coat protein of M13 filamentous bacteriophage (New England Biolabs CX7C library); junction between peptide and pIII
B3: binds [1].

B4: R5-C6 phage (M13 phage displaying CTITSKRTC) (peptide)
chain: CTITSKRTC
modifications: not fully specified (bridges); cysteine pairing not given here; also: displayed on M13 phage pIII coat protein
notes: as for B2
B4: binds [1]; binds (PSMA on LNCaP cells).

B5: R3-A4 phage (M13 phage displaying CFPQSSARC) (peptide)
chain: CFPQSSARC
modifications: not fully specified (bridges); cysteine pairing not given here; also: displayed on M13 phage pIII coat protein
notes: as for B2
B5: binds [4]; binds (PSMA on LNCaP cells).

B6: SEQ ID NO 9 phage (M13 phage displaying CPSVNTKQC) (peptide)
chain: CPSVNTKQC
modifications: not fully specified (bridges); cysteine pairing not given here; also: displayed on M13 phage pIII coat protein
notes: Tested as whole phage; also called R5-C11; not shown: pIII coat protein of M13 filamentous bacteriophage (New England Biolabs CX7C library); junction between peptide and pIII
B6: binds [1].

B7: SEQ ID NO 107 phage (M13 phage displaying CTPQSSDRC) (peptide)
chain: CTPQSSDRC
modifications: not fully specified (bridges); cysteine pairing not given here; also: displayed on M13 phage pIII coat protein
notes: as for B1
B7: binds [1].
